The values that follow come from article PMC11123335.

Assay [1] deals with pentameric IgM HB617 (UniProt P01591). Nature of the assay: ELISA; competition: IgM coated (2 µg/mL); serially diluted ACB or AD2 mixed with a constant sC1q (10 µg/mL final); TBS with 2% PVP, 5 mM CaCl2, 1.5 mM MgCl2; room temperature; bound sC1q detected with anti-C1q HRP; relative IC50: OD at the highest mimetic value as 100%, without mimetic as 0%, approximate values. (In general: In an ELISA, binding on a coated surface is turned into a signal by an enzyme label.)

Assay [2] deals with hexameric IgM 2G12 (human). The description is as above.
The target in the next assay is pentameric IgM 2G12 (UniProt P01591). The assay is described as above.
The target of assay [3] is pentameric IgM HB617 (UniProt P01591).

With “C1q mimetic ACB (single-chain globular region of C1q) (from UniProt P02745 115-245; P02747 115-245; P02746 117-253)”, in the assay with pentameric IgM HB617 [1], the maximal inhibition of sC1q binding is 70% and the relative IC50 (usually the concentration at the midpoint between the plateaus of the fitted inhibition curve) turned out to be 1.3 µg/mL. Further, in assay [2], the maximal inhibition of sC1q binding came to 77%, the percent inhibition of sC1q binding at 2.5–20 µg/mL ACB (lower end) lay within 67 to 77% and the relative IC50 stood at 1.3 µg/mL. In addition, in the assay with pentameric IgM 2G12, the maximal inhibition of sC1q binding was found to be 59% and the relative IC50 turned out to be 1.3 µg/mL. The competitive complement activation ELISA, reduction in C4b deposition by ACB against sC1q on coated 5IgM HB617; 8-fold (20% reduction) to 16-fold (w/w) excess of ACB over sC1q with pentameric IgM HB617 [3] is 60%.

As to “C1q mimetic ACB-AD2 (ACB fused to domain 2 of human serum albumin) (from UniProt P02745 115-245; P02747 115-245; P02746 117-253; P02768 211-403)”, the maximal inhibition of sC1q binding with pentameric IgM HB617 [1] worked out at 39%; in assay [2], 47%; in the assay with pentameric IgM 2G12, 23%. The relative IC50 with pentameric IgM HB617 [1] amounted to 1.3 µg/mL; in assay [2] it was 0.6 µg/mL; with pentameric IgM 2G12, 1.3 µg/mL.
